First the molecules themselves.
B1: RUPA-70 (antibody, V domains shown)
VH: QVQLQESGPGLVKPSQTLSLTCTVSGGSISIGGYYWSWIRQHPGKGLEWIGYIYYSGTTYYNPSLKSRVIISIDTSKNQFSLRLKSVTAADTAVYYCARTGLVAAIRGSRRGQQGDYFDYWGQGTLVPVSS
VL: SYELTQPPSVSVSPGQTASLTCSGDKLGDKYASWYQQKPGQSPVLVIHQDKKRPSGIPERFSGSNSGNTATLTISGTQAMDEADYYCQAWDSNTGVFGGGTKLTVL
notes: human IgG1; source: recombinant human IgG1, 293T (Protein A purified) or GenScript
B2: RUPA-42 (antibody, V domains shown)
VH: QVQLQESGPGLVKPSQTLSLTCTVSGGSISSGGYYWSWIRQHPGKGLEWIGYIYYSGTTYYHPSLESRVTISVDTSKNQFSLKLNSVTAADTAIYYCARAGLVAAIRGSRRGQQGDYFDHWGQGTLVTVSS
VL: B1 VL with L20I, D25E, K30R, A32V, V44L, I47L, M80L, Y86F, N93S
notes: as for B1
B3: RUPA-50 (antibody, V domains shown)
VH: QVHLVESGGGVVQPGRSLRLSCAASGFTFRSYGMHWVRRVPGKGLEWVATISYDETFKDYPDSVKGRFTISRDNSKNTLFLQMNSLRPADTAVYYCAKDRAHSMHYFEYWGRGTLVTVSS
VL: SYELTQPPSVSVSPGQTARLTCSGDALPKKFAYWYQLKSGQAPVLVIYEDSKRPSGIPERFSGSSSGTTATLTISGAQVEDEADYYCYSRDGSGDQKNIFGGGTKLTVL
notes: as for B1
B4: RUPA-34 (antibody, V domains shown)
VH: EVQLVESGGGLIQPGGSLRLSCAASGFTVSSNYMSWVRQAPGKGLEWVSVIYSGGSGGSTYYADSVKGRFTISRDNLKNTLYLQMNNLRAEDAAVYYCVRDSRGWGYFDDWGQGTLVTVSS
VL: EVVLTQSPGTLSLSPGERATLSCRASQSIRTNYLAWYQQKPGQTPRLLIYGASSRATGIPDRFSGSGSGTDFTLTISRLEPEDFAVYFCQQYQNSPWTFGQGTKVEIK
notes: as for B1
B5: RUPA-25 (antibody, V domains shown)
VH: QVQLVQSGAEVKKPGASVKVSCTASGYNFLTHDISWVRQATGQGLEWMGWMNPNTGKKGYVQKFQGRVTMDRDMSKSTAYMELRSLTSEDTAVYYCVRGVGSYYGSGGWFDPWGQGTLVTVSS
VL: QPVLTQPPSASETPGQKVTISCSGSSSNIGSDTVSWYVQLPGTAPKLLIYNDNQRPSGVPDRFSGSKSGTSASLAISGLQSEDEADYYCATWDASLKRRVFGGGTTLTVL
notes: as for B1
B6: RUPA-54 (antibody, V domains shown)
VH: QVQLVESGGGVVQPGRSLRLSCTASGFTFRSYGIHWVRQAPGKGLQWVAFISYDGRNKYYADSVKGRFTISRDNSKNTLYLQMSGLRADDTAVYYCAKDSDNDCTATSCYTVSWGQGTLVTVSS
VL: SYELTQPPSVSVSPGQTARITCSGDALPKKYAYWYQQKSGQAPVLVIYEDKKRPSGIPERFSGSSSGTMATLTISGAQVEDEADYYCYSTDSRTDHGGIFGGGTKLTVL
notes: as for B1
B7: RUPA-29 (antibody, V domains shown)
VH: QVHLVESGGGVVQPGRSLRLSCAASGFTFRSYGMHWVRLAPGKGLEWVTAIWYDGSKKHFADSVKGRFTISRDNSKNTLYLQMSSLRVEDTAVYYCARDFAHGAFYPVDWGRGTLVTVSS
VL: SYELTQPPSVSVSPGQTARITCSGDALPKKHAYWYQQKSGQAPVLVIYDDSKRPSGIPERFSGSSSGTMATLSISGAQVEDEAAYYCYSSDTSANYWVFGGGTKLTVL
notes: as for B1
B8: RUPA-72 (antibody, V domains shown)
VH: EVQLVESGGGLVQPGGSLRLSCAASGFTFSYYWMHWVRQAPGKELVWVSRIKSDGSSGTTTDYADSVKGRFTISRDTAKNTLYLQMNSLRAEDTAVYYCARAGCSNGVCPPRYYYHGMDVWGQGTTVTVSS
VL: EIVLTQSPGTLSGSPGERATLSCRASQSIRSNYLAWYQQKPGQAPRLLIYGASSRATDIPARFSGSGSGTDFTLTISRLEPEDFAVYYCQHYGNSRVTFGQGTKVEIK
notes: as for B1
B9: RUPA-53 (antibody, V domains shown)
VH: QVLLVQSGAEVKKPGASVKVSCKASGYTFLYHDISWVRQATGQGLEWMGWMNPNTGDTGYAQRFQGRVTMTRDMSISTAYLELGSLSSEDTAVYYCARGVGSYHGSGGWLDPWGQGTLVIVSS
VL: not shown
notes: as for B1
B10: RUPA-86 (antibody, V domains shown)
VH: QVQLVQSGAEVKKPGASVKVSCKSSGFRFTGYYIHWVRQAPGQGLEWMGCINPNNGGTNYAQKFQGRVTMTRDTSITTAYMDLSRLKSDDTAVYYCARLVAYDQGLDVWGQGTTVTVSS
VL: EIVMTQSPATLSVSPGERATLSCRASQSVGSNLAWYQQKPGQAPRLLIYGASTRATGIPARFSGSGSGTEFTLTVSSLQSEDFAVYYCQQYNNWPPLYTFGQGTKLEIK
notes: as for B1
B11: RUPA-44 (antibody, V domains shown)
VH: QLQLQESGPGLVKPSETLSLTCTVSGGSISRSPYYWGWIRQPPGKGLEWFGSIYNNGSTYYNPPLKSRLTISVDTSKNQFSLKLSSVTAADTAVYYCARHGGSTGMKVVVIAPPDYWGQGTLVTVSS
VL: DIQMTQSPATLSASVGDRVTITCRASQSISSWLAWYQQKPGEAPKLLIYKASSLQSGVPSRFSGSGSGTKFSLTISSLQPDDFATFYCQQYHSYPYTFGQGTKLEIK
notes: as for B1
B12: RUPA-61 (antibody, V domains shown)
VH: QVQLVQSGAEVKKPGASVKVSCKASEDTFSSYYIHWVRQAPGQGLEWMGMMNPSGGGTRYTQKFQGRVTMTSDTSTSTVYMEVISLRSEDTAVYYCARVRKRDAYNNRNWGSVFGGMDVWGQGTTVTVSS
VL: QSALTQPPSASGSPGQSVSISCTGTSSDVGGHDYVSWYQHHPGKAPKLMIYEVSKRPSGVPDRFSGAKSGNTASLTVSGLQAEDEADYYCSSFGGSNNLVFGGGTKVTVV
notes: as for B1
B13: RUPA-47 (antibody, V domains shown)
VH: QVQLVQSGAEVKKPGASVKLSCTASGYTFTNFGITWVRQAPGQGLEWMAWISVYSGDTDYAQRFQGRVTMTTDTSTRTAYMEMRSLSFDDTAVYYCVRGGRDSPILGGYWGQGTLVTVSS
VL: EIVLTQSPGTLSLSPGERVTLSCRASQSVRSMYLAWYQQKPGQAPRLLIHGASIRATGIPDRFSGSGSGTDFTLTISRLEREDFAVYYCHQYGSSPLTFGGGTKVESK
notes: as for B1
B14: RUPA-35 (antibody, V domains shown)
VH: QVQLVQSGAEVKKPGASVKVSCKASGYTFTSHDIIWVRQAPGQGLEWMGWMNPNIGDTGYAQKFQGRLSMTRKMSISTAYMELSSLRSEDTAVYYCSRGVGTYHGSGGWFDPWGQGTLVTVSS
VL: QSVLTQPPSASETPGQRVTISCSGSTSNIGSNTVSWYQQYPGTAPKLLMYSDNQRPSGVPDRFSGSKSGTSASLAISGLQSEDEAEYYCATWDDSLKRGVFGGGTKLTVL
notes: as for B1
B15: RUPA-41 (antibody, V domains shown)
VH: QVQLVQSGAELKKPGASVKVSCKASGYTFTSHDITWVRQAAGQGLEWMGWMNPNTGDKGYAQKFQGRVTLTRNMSTRTAYMELNSLTSEDTAVYYCARGVGTYHGAGGWFDPWGQGTLVTVSS
VL: B14 VL with L4V, A10V, T26S, T33I, Y40L, M49I, N53T, G65A, Q80H, E86D
notes: as for B1
B16: RUPA-49 (antibody, V domains shown)
VH: QVQLVQSGAEVKKPGASVKVSCKASGYTFLYHDIIWMRQATGQGPEWMGWINPNTGNTGLAQKFQGRVSLTRNMSSGTAYMELRSLRSEDRAIYFCARGVGTYHGSGGWFDPWGQGTLVAVSS
VL: B14 VL with I20L, T26S, N32H, S35N, Q38R, Y40L, M49I, Y50H, N53D, E86D
notes: as for B1
B17: RUPA-57 (antibody, V domains shown)
VH: QVQLVESGGGVVQPGRSLRLSCTASGFSFSDYGMHWVRQAPGKGLEWVAVISYHGRDKSYADSVKGRFTISRDNSKKTLYLQMNSLTAEDTALYYCAKSNDHYDNSGYFVYWGLGTKVTVSS
VL: SYELTQPPSVSVSPGQTATITCSGDALPKKFAFWYQQKSGQAPVLVIYEDTKRPSGIPERFSGSSSGTLATLTISGAQVEDEADYYCYSRDSSNTQRVFGGGTKVTVL
notes: as for B1

Substitutions are numbered along the chain they refer to.

In the first test the target is recombinant full-length Pfs48/45 (Plasmodium falciparum 3D7, UniProt Q8I6T1). The test is described as follows: ELISA. The following applies: both partners purified. (An ELISA detects its analyte on a solid surface through an enzyme-linked reagent.)
recombinant full-length Pfs48/45, sequence (Q8I6T1 28-428): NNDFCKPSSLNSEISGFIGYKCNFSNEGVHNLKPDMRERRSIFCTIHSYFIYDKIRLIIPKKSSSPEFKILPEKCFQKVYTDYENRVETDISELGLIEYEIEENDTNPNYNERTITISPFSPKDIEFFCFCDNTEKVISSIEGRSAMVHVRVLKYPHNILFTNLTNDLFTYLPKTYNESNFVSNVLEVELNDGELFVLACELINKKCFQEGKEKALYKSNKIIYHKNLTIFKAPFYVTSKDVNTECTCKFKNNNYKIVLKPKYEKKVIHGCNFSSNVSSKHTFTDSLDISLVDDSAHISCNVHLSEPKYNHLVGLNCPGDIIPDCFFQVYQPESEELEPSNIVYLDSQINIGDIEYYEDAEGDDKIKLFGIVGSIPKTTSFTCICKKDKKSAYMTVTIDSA
Consider B1, for which the binding result was “binds”.
The same measure, in the same setting: to B2 belongs “binds”; to B3, “binds”.
Turning to B4, the binding result is “binds”.
On the same count and under the same terms, next, B5: “binds”.
Same read-out and setting: next, B6: “binds”; B7: “binds”; B8: “binds”.
The same measure, in the same setting: to B9 belongs “binds”; to B10, “binds”.
B11: the binding result is “binds”.
Still for that read-out and setting: to B12 belongs “binds”; to B13, “binds”; to B14, “binds”.
Take B15: the binding result is reported as “binds”.
The same measure, in the same setting: next, B16: “binds”; B17: “binds”.

For another test, the target named is Pfs48/45 D2-3 (Plasmodium falciparum 3D7, UniProt Q8I6T1). Description: ELISA. The following applies: both partners purified.
Pfs48/45 D2-3, sequence (Q8I6T1 184-428): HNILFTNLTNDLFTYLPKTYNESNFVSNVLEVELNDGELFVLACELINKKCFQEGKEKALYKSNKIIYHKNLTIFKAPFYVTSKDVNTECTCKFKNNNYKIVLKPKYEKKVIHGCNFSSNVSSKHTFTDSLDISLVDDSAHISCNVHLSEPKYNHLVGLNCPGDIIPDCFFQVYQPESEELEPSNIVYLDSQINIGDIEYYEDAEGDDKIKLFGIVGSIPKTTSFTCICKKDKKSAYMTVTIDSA
As to B1, the binding result is given as “binds”.
With B2, the binding result is reported as “binds”.
With B3, the binding result was “binds”.
Same read-out and setting: to B4 belongs “binds”; to B5, “binds”.
Same read-out and setting: next, B6: “binds”; B7: “binds”.
For the molecule B8, the binding result is “binds”.
As to B9, the binding result is listed as “binds”.
On the same count and under the same terms, next, B10: “binds”.
Still for that read-out and setting: to B11 belongs “binds”; to B12, “binds”.
Same read-out and setting: to B13 belongs “binds”.
On to B14, for which the binding result is on record as “binds”.
On to B15, for which the binding result was “binds”.
Same read-out and setting: next, B16: “binds”; B17: “binds”.

The target in another test is Pfs48/45 D1-2 (Plasmodium falciparum 3D7, UniProt Q8I6T1). The test is described as follows: ELISA. The following applies: both partners purified.
Pfs48/45 D1-2, sequence (Q8I6T1 28-289): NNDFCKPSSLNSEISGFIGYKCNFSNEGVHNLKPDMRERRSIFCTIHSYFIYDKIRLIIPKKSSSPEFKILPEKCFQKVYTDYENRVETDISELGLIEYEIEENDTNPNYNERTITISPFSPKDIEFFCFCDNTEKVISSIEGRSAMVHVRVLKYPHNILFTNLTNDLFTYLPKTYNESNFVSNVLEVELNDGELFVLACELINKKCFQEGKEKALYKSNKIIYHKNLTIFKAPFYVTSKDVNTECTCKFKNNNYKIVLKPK
For B2, the binding result is reported as “no binding (tested: 10 ug/ml)”.
On the same count and under the same terms, to B4 belongs “binds”.
Still for that read-out and setting: to B5 belongs “binds”; to B9, “binds”; to B10, “binds”.
Consider B14, for which the binding result is “binds”.
On the same count and under the same terms, next, B15: “binds”; B16: “binds”.

A further test deals with Pfs48/45 D3 (Plasmodium falciparum 3D7, UniProt Q8I6T1). The test is described as follows: ELISA. The following applies: both partners purified.
Pfs48/45 D3, sequence (Q8I6T1 287-428): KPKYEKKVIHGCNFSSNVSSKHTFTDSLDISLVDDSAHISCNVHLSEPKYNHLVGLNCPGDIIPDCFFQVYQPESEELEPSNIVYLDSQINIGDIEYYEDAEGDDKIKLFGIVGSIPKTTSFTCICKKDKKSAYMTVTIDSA
On to B1, for which the binding result was “binds”.
Turning to B2, the binding result is recorded as “binds”.
For B3, the binding result is reported as “binds”.
Still for that read-out and setting: next, B4: “no binding (tested: 10 ug/ml)”; B5: “no binding (tested: 10 ug/ml)”.
Same read-out and setting: next, B6: “binds”.
The same measure, in the same setting: next, B7: “binds”; B8: “binds”; B11: “binds”.
Take B12: the binding result is listed as “binds”.
Still for that read-out and setting: next, B13: “binds”.
Regarding B15, the binding result is on record as “no binding (tested: 10 ug/ml)”.
On the same count and under the same terms, next, B17: “binds”.

Values taken from publication PMC9942873 (Immunity, 2023).
